In assay [1] the target is EGFR-GFP (epidermal growth factor receptor fused to GFP) on F1-4 cells (UniProt P00533). Description: flow cytometry on cells; F1-4 cells incubated with a concentration series of EGF for 24 h on ice; Hill equation fit; the paper finds internalized EGF and questions equilibrium at this time.
The target is the same in assay [2]. The assay can be described thus: flow cytometry on cells; global fit of the paper's model (conformations of ECD and kinase domain, dimerization, ligand binding to monomers and dimers) to all 12 TAMRA-EGF binding data sets (untreated, erlotinib, lapatinib; three gates and all cells), 1 h on ice; K2-K9 shared; ligand constants in nM, receptor dimerization constants in number of receptors/cell.

Assay [3] has the same target. Description: flow cytometry on cells; F1-4 cells treated with 2 uM latrunculin-B at 37°C for 10 min, then concentration series of TAMRA-EGF, 1 h on ice; Hill equation fit.
For assay [4] the target is unchanged. Description: flow cytometry on cells; cells treated with 5 uM lapatinib at 37°C for 1 h and labelled with TAMRA-EGF in the continued presence of the inhibitor, 1 h on ice; Hill equation fit, apparent Kd; low expresser gate.
Assay [5] has the same target. Description: flow cytometry on cells; cells treated with 5 uM lapatinib at 37°C for 1 h and labelled with TAMRA-EGF in the continued presence of the inhibitor, 1 h on ice; Hill equation fit, apparent Kd; all cells.
Assay [6] shares this target. The assay can be described thus: flow cytometry on cells; cells treated with 5 uM erlotinib at 37°C for 1 h and labelled with TAMRA-EGF in the continued presence of the inhibitor, 1 h on ice; Hill equation fit, apparent Kd; high expresser gate.
Assay [7] shares this target. Description: flow cytometry on cells; cells treated with 5 uM lapatinib at 37°C for 1 h and labelled with TAMRA-EGF in the continued presence of the inhibitor, 1 h on ice; Hill equation fit, apparent Kd; medium expresser gate.
Assay [8] has the same target. The assay can be described thus: flow cytometry on cells; cells treated with 5 uM erlotinib at 37°C for 1 h and labelled with TAMRA-EGF in the continued presence of the inhibitor, 1 h on ice; Hill equation fit, apparent Kd; medium expresser gate.
Assay [9] shares this target. Description: flow cytometry on cells; two-fold dilution series of TAMRA-EGF in PBS + 1% BSA on suspended F1-4 cells, 1 h on ice, measured without washing; Hill equation fit, apparent Kd; untreated (control) cells, all cells.
Assay [10] has the same target. The assay can be described thus: flow cytometry on cells; cells treated with 5 uM lapatinib at 37°C for 1 h and labelled with TAMRA-EGF in the continued presence of the inhibitor, 1 h on ice; Hill equation fit, apparent Kd; high expresser gate.

For the substance “Tetramethylrhodamine-labeled EGF (ligand)”, the Kd amounted to 5.2 nM in assay [1]; 8.2 nM in assay [3]; 6.3 nM in [4]; 4.9 nM in [5]; 1.7 nM in assay [6]; 5.1 nM in assay [7]. In addition, the Kd in assay [8] was 1.8 nM; in assay [9], 3.4 nM; in assay [10], 4.9 nM. This substance showed a K3, Kd of EGF binding to a monomer with extended ECD in [2] of 1.3 nM. Also, in [2], the K5, Kd of binding of the first EGF to a dimer with inactive, symmetric kinase dimer worked out at 95 nM. The K6, Kd of binding of the second EGF to a dimer with inactive, symmetric kinase dimer in [2] came out at 0.45 nM. Further, the K9, Kd of binding of the second EGF to a dimer with active, asymmetric kinase dimer in assay [2] is 2.96 nM.

(Values after article PMC7431817.)
